What all share (assay): peptide library pulldown on immobilized Nb, LC-MS of supernatant; ratio vs GFP-Nb control (1 = not captured, 0 = captured)
The target of assay [1] is T1, BC2T Q12M library peptide (human).
T1 peptide: Ac-PDRKAAVSHWQM-NH2
Put shortly: (§1)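 Unbound peptide left in supernatant after 1 h pulldown in PBS/0.01% CHAPS measured by reversed-phase LC-MS (8–30% eluent B gradient, 20 min).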

A further assay concerns the target T2, BC2T S8Y library peptide (human).
T2 construct: also called BC2TS8X: Y
T2 peptide: Ac-PDRKAAVYHWQQ-NH2
Put shortly:
as §1

The target in assay [2] is T3, BC2T Q12Y library peptide (human).
T3 peptide: Ac-PDRKAAVSHWQY-NH2
In short, it runs like this:
as §1

In a further assay the target is T4, BC2T S8V library peptide (human).
T4 construct: also called BC2TS8X: V
T4 peptide: Ac-PDRKAAVVHWQQ-NH2
Put shortly: as §1

For another assay, the target named is T5, BC2T S8Q library peptide (human).
T5 construct: also called BC2TS8X: Q
T5 peptide: Ac-PDRKAAVQHWQQ-NH2
Put shortly:
as §1

The target of assay [3] is T6, BC2T W10C* library peptide (human, SMILES …).
T6 construct: also called BC2TW10X: C*; C(Abu)
T6 peptide: Ac-PDRKAAVSH[GABA]QQ-NH2
In short, it runs like this: as §1

The target of another assay is T7, BC2T S8K library peptide (human).
T7 construct: also called BC2TS8X: K
T7 peptide: Ac-PDRKAAVKHWQQ-NH2
In short, it runs like this:
as §1

Assay [4] concerns the target T8, BC2T Q11S library peptide (human).
T8 peptide: Ac-PDRKAAVSHWSQ-NH2
Put shortly: as §1

Assay [5] concerns the target T9, BC2T S8C* library peptide (human, also: Abu described as gamma-amino butyric acid).
T9 construct: also called BC2TS8X: C*; C(Abu)
T9 peptide: Ac-PDRKAAV[GABA]HWQQ-NH2
Put shortly:
as §1

The target in assay [6] is T10, BC2T Q11F library peptide (human).
T10 peptide: Ac-PDRKAAVSHWFQ-NH2
Put shortly:
as §1

Assay [7] addresses T11, BC2T Q11C* library peptide (human, SMILES …).
T11 construct: also called C(Abu)
T11 peptide: Ac-PDRKAAVSHW[GABA]Q-NH2
Put shortly: as §1

Assay [8] addresses T12, BC2T W10A library peptide (human).
T12 construct: also called BC2TW10X: A
T12 peptide: Ac-PDRKAAVSHAQQ-NH2
Put shortly:
as §1

The next assay has as its target T13, BC2T H9N library peptide (human).
T13 peptide: Ac-PDRKAAVSNWQQ-NH2
In short, it runs like this:
as §1

In assay [9] the target is T14, BC2T W10V library peptide (human).
T14 construct: also called BC2TW10X: V
T14 peptide: Ac-PDRKAAVSHVQQ-NH2
In short, it runs like this:
as §1

Square brackets hold non-standard residues; d marks the D form. GABA = NCCCC(=O)O

B1: BC2-Nb(R106E) (VHH)
VHH: QVQLVESGGGLVQPGGSLTLSCTASGFTLDHYDIGWFRQAPGKEREGVSCINNSDDDTYYADSVKGRFTIFMDNAKDTVYLQMNSLKPEDTAIYYCAEARGCKRGEYEYDFWGQGTQVTVSS
notes: Headlock mutant; immobilized on beads in the library pulldown
In the case of B1, the ratio was found to be 0.2 in [1]; 0.9 in the assay with BC2T S8Y library peptide; 0.2 in [2]; 0.2 in the assay with BC2T S8V library peptide; 0.9 with BC2T S8Q library peptide; 1.1 in assay [3]. The ratio in the assay with BC2T S8K library peptide is 0.9; in assay [4], 0.2; in assay [5], 0.1; in assay [6], 0.1; in [7] it was 0.2; in [8], 1.1. Moreover, the results for the ratio (with BC2T H9N library peptide; in [9]) were 0.2 and 1, respectively.

The values above are taken from patent US20170137467A1 (CHROMOTEK, published 2017).
